According to PMC11194070, “Despite the odds: formation of the SARS-CoV-2 methylation complex” (Nucleic Acids Research, 2024):

Target: T1, SARS-CoV-2 nonstructural protein 10 (nsp10) (SARS-CoV-2, UniProt P0DTD1 4254-4392)
T1 construct: also called 2H15N-nsp10; apo-nsp10
Assay: MST
Settings: both partners purified

B1: nsp14ExoN, nsp14 without the methyltransferase domain but retaining the exonuclease activity (domain or fragment)
chain: AENVTGLFKDCSKVITGLHPTQAPTHLSVDTKFKTEGLCVDIPGIPKDMTYRRLISMMGFKMNYQVNGYPNMFITREEAIRHVRAWIGFDVEGCHATREAVGTNLPLQLGFSTGVNLVAVPTGYVDTPNNTDFSRVSAKPPPGDQFKHLIPLMYKGLPWNVVRIKIVQMLSDTLKNLSDRVVFVLWAHGFELTSMKYFVKIGPERTCCLCDRRATCFSTASDTYACWHHSIGFDYVYNPFMIDVQQWGFTGNLQSNHDLYCQVHGNAHVASCDAIMTRCLAVHECFVKRVDWTIE
  Kd: 4.55 ± 2.68 µM
